Assay results taken from publication PMC5720862 (Developmental cell, 2017).
Where two headings read alike, the source gives them in different places.

T1: DSK2A-MBP (Arabidopsis thaliana, UniProt Q9SII9 1-538)
T1 sequence (looked up): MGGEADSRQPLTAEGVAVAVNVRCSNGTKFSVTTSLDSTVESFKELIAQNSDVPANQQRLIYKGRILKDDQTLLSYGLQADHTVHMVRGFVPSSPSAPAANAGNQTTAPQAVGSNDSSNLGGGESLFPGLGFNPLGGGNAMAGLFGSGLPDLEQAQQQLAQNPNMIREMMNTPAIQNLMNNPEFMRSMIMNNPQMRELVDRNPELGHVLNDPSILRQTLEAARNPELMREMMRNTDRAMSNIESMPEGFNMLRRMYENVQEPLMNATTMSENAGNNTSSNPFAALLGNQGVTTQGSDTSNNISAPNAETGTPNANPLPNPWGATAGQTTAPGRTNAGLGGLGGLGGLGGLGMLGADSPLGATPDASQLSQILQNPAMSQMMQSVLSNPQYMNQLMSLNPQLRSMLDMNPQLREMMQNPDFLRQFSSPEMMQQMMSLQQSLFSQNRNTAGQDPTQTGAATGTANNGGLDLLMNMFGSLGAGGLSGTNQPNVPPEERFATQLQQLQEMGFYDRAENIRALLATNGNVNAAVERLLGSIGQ

T2: DSK2A-HIS (Arabidopsis thaliana, UniProt Q9SII9 1-538)
T2 sequence (looked up): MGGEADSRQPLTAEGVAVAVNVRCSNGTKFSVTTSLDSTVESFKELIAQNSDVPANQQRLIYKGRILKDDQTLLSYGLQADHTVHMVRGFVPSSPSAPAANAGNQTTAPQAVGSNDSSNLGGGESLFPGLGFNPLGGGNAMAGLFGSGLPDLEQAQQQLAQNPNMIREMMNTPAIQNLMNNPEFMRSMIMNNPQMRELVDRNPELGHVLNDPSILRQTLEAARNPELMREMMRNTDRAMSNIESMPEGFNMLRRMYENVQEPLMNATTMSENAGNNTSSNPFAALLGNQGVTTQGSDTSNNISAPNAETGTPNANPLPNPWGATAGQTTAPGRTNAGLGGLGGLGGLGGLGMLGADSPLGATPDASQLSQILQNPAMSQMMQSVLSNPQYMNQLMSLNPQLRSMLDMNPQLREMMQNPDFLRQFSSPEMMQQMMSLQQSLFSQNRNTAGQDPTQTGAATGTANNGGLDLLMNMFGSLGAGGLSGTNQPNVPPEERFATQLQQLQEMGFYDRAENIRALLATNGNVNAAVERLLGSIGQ

T3: GST-DSK2A (Arabidopsis thaliana, UniProt Q9SII9 1-538)
T3 sequence (looked up): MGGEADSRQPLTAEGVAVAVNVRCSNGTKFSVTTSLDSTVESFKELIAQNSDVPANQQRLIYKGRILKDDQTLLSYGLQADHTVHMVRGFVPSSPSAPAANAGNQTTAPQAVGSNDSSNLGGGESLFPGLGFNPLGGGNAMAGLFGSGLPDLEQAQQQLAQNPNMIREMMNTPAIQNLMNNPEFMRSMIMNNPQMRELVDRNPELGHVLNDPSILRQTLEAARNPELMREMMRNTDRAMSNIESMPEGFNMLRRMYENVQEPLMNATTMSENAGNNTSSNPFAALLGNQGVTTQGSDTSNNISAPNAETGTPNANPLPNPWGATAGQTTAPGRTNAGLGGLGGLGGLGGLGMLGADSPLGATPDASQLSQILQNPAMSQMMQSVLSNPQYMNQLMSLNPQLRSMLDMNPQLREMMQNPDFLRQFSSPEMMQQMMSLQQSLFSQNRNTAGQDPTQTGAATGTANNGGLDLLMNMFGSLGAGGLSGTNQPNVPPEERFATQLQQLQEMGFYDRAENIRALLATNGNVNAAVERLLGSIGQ


Columns and labels:
Experiment in all cases: pull-down
DSK2A-MBP [1] = target: T1, DSK2A-MBP
DSK2A-MBP [2] = target: T1, DSK2A-MBP; remark: listed apart in the source
DSK2A-HIS = target: T2, DSK2A-HIS
GST-DSK2A = target: T3, GST-DSK2A

| binding result (DSK2A-MBP [2]) | Binder | further results |
| --- | --- | --- |
| binds | GST-ATG8f (natural protein, Arabidopsis thaliana, UniProt Q8VYK7 1-117, looked up) MAKSSFKQEHDLEKRRAEAARIREKYPDRIPVIVEKAEKSDIPTIDKKKYLVPADLTVGQFVYVIRKRIKLSAEKAIFIFVDNVLPPAGALMSSVYEEKKDDDGFLYVTYSGENTFG |  |
| binds | GST-ATG8a (natural protein, Arabidopsis thaliana, UniProt Q8LEM4 1-117, looked up) MAKSSFKISNPLEARMSESSRIREKYPDRIPVIVEKAGQSDVPDIDKKKYLVPADLTVGQFVYVVRKRIKLGAEKAIFVFVKNTLPPTAALMSAIYEEHKDEDGFLYMTYSGENTFG |  |

The next lines start with the binder.

| Binder | binding result (DSK2A-MBP [2]) | further results |
| --- | --- | --- |
| BIN2, recombinant, of the in vitro pull-down with DSK2 (enzyme, Arabidopsis thaliana, UniProt Q39011 1-380, looked up) MADDKEMPAAVVDGHDQVTGHIISTTIGGKNGEPKQTISYMAERVVGTGSFGIVFQAKCLETGETVAIKKVLQDRRYKNRELQLMRVMDHPNVVCLKHCFFSTTSKDELFLNLVMEYVPESLYRVLKHYSSANQRMPLVYVKLYMYQIFRGLAYIHNVAGVCHRDLKPQNLLVDPLTHQVKICDFGSAKQLVKGEANISYICSRFYRAPELIFGATEYTTSIDIWSAGCVLAELLLGQPLFPGENAVDQLVEIIKVLGTPTREEIRCMNPHYTDFRFPQIKAHPWHKIFHKRMPPEAIDFASRLLQYSPSLRCTALEACAHPFFDELREPNARLPNGRPFPPLFNFKQEVAGSSPELVNKLIPDHIKRQLGLSFLNQSGT |  | binding result (DSK2A-MBP [1]): binds |
| GST-ATG8e (natural protein, Arabidopsis thaliana, UniProt Q8S926 1-118, looked up) MNKGSIFKMDNDFEKRKAEAGRIREKYPDRIPVIVEKAEKSEVPNIDKKKYLVPSDLTVGQFVYVIRKRIKLSAEKAIFIFVDNVLPPTGELMSSVYEDKKDEDGFLYITYSGENTFG | binds |  |
| GST-ATG8i (natural protein, Arabidopsis thaliana, UniProt Q9LRP7 1-115, looked up) MKSFKEQYTLDERLAESREIIAKYPTRIPVIAEKYCKTDLPAIEKKKFLVPRDMSVGQFIYILSARLHLSPGKALFVFVNNTLPQTAALMDSVYESYKDDDGFVYMCYSSEKTFG | binds |  |
| phosphorylated BES1-MBP (natural protein, Arabidopsis thaliana, UniProt Q9LN63 1-335, looked up, phosphorylated in vitro by BIN2-GST (sites not given)) MTSDGATSTSAAAAAAAMATRRKPSWRERENNRRRERRRRAVAAKIYTGLRAQGNYNLPKHCDNNEVLKALCSEAGWVVEEDGTTYRKGHKPLPGDMAGSSSRATPYSSHNQSPLSSTFDSPILSYQVSPSSSSFPSPSRVGDPHNISTIFPFLRNGGIPSSLPPLRISNSAPVTPPVSSPTSRNPKPLPTWESFTKQSMSMAAKQSMTSLNYPFYAVSAPASPTHHRQFHAPATIPECDESDSSTVDSGHWISFQKFAQQQPFSASMVPTSPTFNLVKPAPQQLSPNTAAIQEIGQSSEFKFENSQVKPWEGERIHDVAMEDLELTLGNGKAHS |  | binding result (DSK2A-HIS): binds |
| SINAT2-MBP (enzyme, Arabidopsis thaliana, UniProt Q9M2P4 1-308, looked up) MAPGGSALKEVMESNSTGMDYEVKTAKVEVNNNKPTKPGSAGIGKYGIHSNNGVYELLECPVCTNLMYPPIHQCPNGHTLCSNCKLRVQNTCPTCRYELGNIRCLALEKVAESLEVPCRYQNLGCHDIFPYYSKLKHEQHCRFRPYTCPYAGSECSVTGDIPTLVVHLKDDHKVDMHDGCTFNHRYVKSNPHEVENATWMLTVFNCFGRQFCLHFEAFQLGMAPVYMAFLRFMGDENEAKKFSYSLEVGAHGRKLTWQGIPRSIRDSHRKVRDSQDGLIIPRNLALYFSGGDRQELKLRVTGRIWKEE |  | binding result (GST-DSK2A): binds |
